{"source": "paper PMC9897663", "assay_in_all_cases": "purified protein", "settings_in_all_cases": "potassium phosphate pH 7.5, 22-23 °C", "key": {"purified protein [1]": {"substrate": "O=C(Nc1ccn([C@H]2C[C@H](O)[C@@H](CO)O2)c(=O)n1)c1ccccc1"}, "purified protein [2]": {"substrate": "O=C(Nc1ccn([C@H]2C[C@H](O)[C@@H](CO)O2)c(=O)n1)c1ccccc1", "format": "biochemical, uncultured bacterium"}, "purified protein [3]": {"substrate": "Nc1ccn([C@H]2C[C@H](O)[C@@H](CO)O2)c(=O)n1", "format": "biochemical, uncultured bacterium"}, "[4]": {"settings": "substrate not given, inferred from the stated about twofold rise over wild type"}}}
{"protein": "CDA_F14 (uncultured bacterium; G81L) (protein) MNKEDLLKKAFEAMENAYAPYSNYHVGACALMKDGTTFLGANIENASYGATNCGERSAIFAAYSNGYRADDIEALAIVTDLDRVGAPCGICRQVLSELLNDNTPIYLSNGKETLEKTIDELLPMRFTKEDLL", "values": [{"measurement": "Km", "setting": "purified protein [1]", "result": "(8.66 ± 3.8) × 10^-4 M"}, {"measurement": "kcat", "setting": "purified protein [1]", "result": "(7.89 ± 3.08) × 10^-1 s^-1"}]}
{"protein": "CDA_F14 (uncultured bacterium; F126W) (protein, recombinant in E. coli HMS174 delta-pyrF delta-cdd, purified; homotetramer, one Zn per subunit; active site formed by three subunits) MNKEDLLKKAFEAMENAYAPYSNYHVGACALMKDGTTFLGANIENASYGATNCGERSAIFAAYSNGYRADDIEALAIVTDGDRVGAPCGICRQVLSELLNDNTPIYLSNGKETLEKTIDELLPMRWTKEDLL", "values": [{"measurement": "Km", "setting": "purified protein [2]; [4]", "result": "(2.11 ± 0.38) × 10^−4 M"}]}
{"protein": "CDA_F14 (uncultured bacterium; F126A) (protein) MNKEDLLKKAFEAMENAYAPYSNYHVGACALMKDGTTFLGANIENASYGATNCGERSAIFAAYSNGYRADDIEALAIVTDGDRVGAPCGICRQVLSELLNDNTPIYLSNGKETLEKTIDELLPMRATKEDLL", "values": [{"measurement": "Km", "setting": "purified protein [1]; [4]", "result": "(2.59 ± 0.73) × 10^−4 M"}]}
{"protein": "CDA_F14 (uncultured bacterium) (protein, recombinant in E. coli HMS174 delta-pyrF delta-cdd, purified; homotetramer, one Zn per subunit; active site formed by three subunits) MNKEDLLKKAFEAMENAYAPYSNYHVGACALMKDGTTFLGANIENASYGATNCGERSAIFAAYSNGYRADDIEALAIVTDGDRVGAPCGICRQVLSELLNDNTPIYLSNGKETLEKTIDELLPMRFTKEDLL", "values": [{"measurement": "Km", "setting": "purified protein [2]", "result": "(1.15 ± 0.16) × 10^−4 M"}, {"measurement": "kcat", "setting": "purified protein [2]", "result": "(5.04 ± 0.4) × 10^−1 s^−1"}, {"measurement": "Km", "setting": "purified protein [3]", "result": "(1.95 ± 0.36) × 10^−4 M"}, {"measurement": "kcat", "setting": "purified protein [3]", "result": "(24.4 ± 1.71) × 10^−1 s^−1"}]}
{"protein": "CDA_F14 (uncultured bacterium; G81L/G85I) (protein) MNKEDLLKKAFEAMENAYAPYSNYHVGACALMKDGTTFLGANIENASYGATNCGERSAIFAAYSNGYRADDIEALAIVTDLDRVIAPCGICRQVLSELLNDNTPIYLSNGKETLEKTIDELLPMRFTKEDLL", "values": [{"measurement": "Km", "setting": "purified protein [1]", "result": "(4.93 ± 1.3) × 10^-4 M"}, {"measurement": "kcat", "setting": "purified protein [1]", "result": "(4.14 ± 0.88) × 10^-2 s^-1"}]}
